For assay [1], the target named is T1, human CD40 expressed on cells (human, UniProt P25942 21-277). The experiment in a line: cell-based or functional assay.
Assay [2] concerns the target T2, human CD40 extracellular domain expressed with a C-terminal myc-myc-hexahistidine tag (human).
T2 construct: also called hCD40-MMH; hCD40-mmH
The experiment in a line: BLI Octet, hCD40-MMH captured on anti-Penta-His tips. How it is done:
Binding competition between different anti-CD40 monoclonal antibodies (mAbs) was determined using a real time, label-free bio-layer interferometry (BLI) assay on the Octet HTX biosensor platform (Pall ForteBio Corp.). In addition to parental antibodies 21519P2, 21520P2, and 30027P2, a comparator anti-CD40 antibody (REGN11209) was also tested; this comparator has the heavy chain and light chain sequences of iscalimab (see, U.S. Pat. No. 8,828,396). The entire experiment was performed at 25° C. in 10 mM HEPES buffer containing 150 mM NaCl, 3 mM EDTA, 1 mg/mL BSA, 0.02% NaN₃, and 0.05% v/v Surfactant Tween-20 at pH 7.4 (HBS-EP) with the plate shaking at a speed of 1000 rpm.
To assess the ability of one antibody to compete with another antibody for binding to CD40, around 0.47 nm-0.54 nm of recombinant human CD40 extracellular domain expressed with a C-terminal myc-myc-hexahistidine (hCD40-MMH; SEQ ID NO: 53) was first captured onto anti-Penta-His antibody coated Octet biosensor tips (Fortebio Inc, #18-5122) by submerging the biosensor tips in wells containing 10 μg/mL solution of the hCD40-MMH for 90 seconds. […] The real-time binding response was monitored and the binding response at the end of every step was recorded. […]
Background: In BLI a coated tip is dipped into the sample, and binding shifts an interference pattern.
Target sequence in this assay (chain, as listed by the source limits assumed): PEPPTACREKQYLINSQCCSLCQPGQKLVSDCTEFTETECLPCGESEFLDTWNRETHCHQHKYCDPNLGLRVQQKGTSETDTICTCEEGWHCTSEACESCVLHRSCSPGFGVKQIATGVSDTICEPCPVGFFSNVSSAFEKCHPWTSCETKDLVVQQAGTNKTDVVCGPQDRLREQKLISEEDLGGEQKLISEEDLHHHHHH

The target of assay [3] is T1, human CD40 expressed on cells. In words: cell-based or functional assay. This is another data set of the same source.
Assay [4] shares this target. The experiment in a line: cell-based or functional assay. The source holds these as a separate data set.
Assay [5] has the same target. In words: cell-based or functional assay. The source holds these as a separate data set.
Assay [6] shares this target. In words: cell-based or functional assay. This is another data set of the same source.
The target is the same in assay [7]. In words: cell-based or functional assay. The source holds these as a separate data set.
Assay [8] deals with T2, human CD40 extracellular domain …. In words: SPR 25C, captured mAb. As for the experimental part: (§1) The equilibrium dissociation constants (KD) for anti-CD40 bivalent and bispecific monoclonal antibodies (mAbs) were determined using a real-time surface plasmon resonance (SPR)-based Biacore 4000 biosensor. All binding studies were performed in 10 mM HEPES, 150 mM NaCl, 3 mM EDTA, and 0.05% v/v surfactant Tween-20, pH 7.4 (HBS-ET) running buffer at 25° C. and 37° C. The Biacore CM5 sensor surface was first derivatized by amine coupling with a monoclonal mouse anti-human Fc antibody (REGN2567) to capture anti-CD40 bivalent parental and anti-CD40×CD40 bispecific antibodies. Different concentrations of CD40 reagents, human CD40 extracellular domain expressed with a C-terminal myc-myc-hexahistidine tag (“hCD40-MMH”; REGN3094; SEQ ID NO: 53), monkey CD40 extracellular domain expressed with a C-terminal myc-myc-hexahistidine tag (“mfCD40-MMH”; REGN3097; SEQ ID NO: 54), and mouse CD40 extracellular domain expressed with a C-terminal myc-myc-hexahistidine tag (“mCD40-MMH”; REGN3098; SEQ ID NO: 55), at concentrations ranging from 3.7 nM to 100 nM or 3.3 nM to 90 nM in a series of 3-fold dilutions prepared in HBS-ET running buffer were injected at a flow rate of […] for 4 minutes or […] for 5 minutes. The dissociation of different CD40 reagents bound to anti-CD40 bivalent parental and anti-CD40×CD40 bispecific antibodies was monitored for 10 minutes in HBS-ET running buffer. At the end of each cycle, the anti-CD40 bivalent parental and anti-CD40×CD40 bispecific antibodies capture surface was regenerated using a 12 sec injection of 20 mM H₃PO₄.
(§2) The association rate (ka) and dissociation rate (kd) were determined by fitting the real-time binding sensorgrams to a 1:1 binding model with mass transport limitation using Scrubber 2.0c curve-fitting software. Binding dissociation equilibrium constant (KD) and dissociative half-life (t½) were calculated from the kinetic rates as: KD (M)=kd/kₐ, and t_{1/2} (min)=[ln(2)/(60*kd)].

Assay [9] concerns the target T3, monkey CD40 extracellular domain expressed with a C-terminal myc-myc-hexahistidine tag (monkey).
T3 construct: also called mfCD40-MMH; REGN3097
T3 chain: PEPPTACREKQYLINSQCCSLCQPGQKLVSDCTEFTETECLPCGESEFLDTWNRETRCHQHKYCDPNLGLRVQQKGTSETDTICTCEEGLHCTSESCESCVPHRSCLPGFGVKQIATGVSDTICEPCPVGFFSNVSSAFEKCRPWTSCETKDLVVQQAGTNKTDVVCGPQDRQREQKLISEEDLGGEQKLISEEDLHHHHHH
In words: SPR 25C, captured mAb. As for the experimental part:
as §1, §2

For assay [10], the target named is T4, mouse CD40 extracellular domain expressed with a C-terminal myc-myc-hexahistidine tag (mouse).
T4 construct: also called mCD40-MMH; REGN3098
T4 chain: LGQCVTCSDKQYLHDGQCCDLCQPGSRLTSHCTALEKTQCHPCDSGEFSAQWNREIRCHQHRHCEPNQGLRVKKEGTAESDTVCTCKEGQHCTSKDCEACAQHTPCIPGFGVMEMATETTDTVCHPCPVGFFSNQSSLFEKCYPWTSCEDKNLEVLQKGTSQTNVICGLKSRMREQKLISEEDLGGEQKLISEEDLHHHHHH
In words: SPR 25C, captured mAb. How it is done: as §1, §2

For assay [11], the target named is T1, human CD40 expressed on cells. In words: cell-based or functional assay. The source holds these as a separate data set.
For assay [12] the target is unchanged. In words: cell-based or functional assay. This is another data set of the same source.
In assay [13] the target is T2, human CD40 extracellular domain …. In words: ELISA, blocks 40 nM hCD40-mmH binding to coated 9His-hCD40L. The gist of the method:
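Antibodies (977 pM to 1 μM) were pre-mixed 1 h with 40 nM hCD40-mmH in PBS+0.5% BSA, then added for 1 h at room temperature to plates coated with 9His-hCD40L (5 μg/mL). Bound hCD40-mmH detected with HRP anti-c-Myc and TMB, OD450. Data fitted by four-parameter logistic; percent blocking calculated at highest concentration.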
Background: An ELISA detects its analyte on a solid surface through an enzyme-linked reagent.

Assay [14] deals with T1, human CD40 expressed on cells. In words: cell-based or functional assay. The source holds these as a separate data set.
The target in assay [15] is T2, human CD40 extracellular domain …. The experiment in a line: SPR 37C, captured mAb. How it is done:
as §1, §2

Assay [16] concerns the target T4, mouse CD40 extracellular domain …. The experiment in a line: SPR 37C, captured mAb. How it is done:
as §1, §2

T1 sequence (P25942 21-277): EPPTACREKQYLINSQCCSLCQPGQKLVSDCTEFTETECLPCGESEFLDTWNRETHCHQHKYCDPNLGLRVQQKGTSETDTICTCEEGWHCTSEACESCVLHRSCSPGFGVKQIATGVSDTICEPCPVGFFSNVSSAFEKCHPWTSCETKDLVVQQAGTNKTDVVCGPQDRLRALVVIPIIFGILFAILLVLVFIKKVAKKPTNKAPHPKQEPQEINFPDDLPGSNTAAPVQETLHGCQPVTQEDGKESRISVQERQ

B1: REGN11209 (comparator anti-CD40 antibody with the heavy chain and light chain sequences of iscalimab) (antibody, human IgG1, kappa, N297A, V domains shown)
VH: QVQLVESGGGVVQPGRSLRLSCAASGFTFSSYGMHWVRQAPGKGLEWVAVISYEESNRYHADSVKGRFTISRDNSKITLYLQMNSLRTEDTAVYYCARDGGIAAPGPDYWGQGTLVTVSS
VL: DIVMTQSPLSLTVTPGEPASISCRSSQSLLYSNGYNYLDWYLQKPGQSPQVLISLGSNRASGVPDRFSGSGSGTDFTLKISRVEAEDVGVYYCMQARQTPFTFGPGTKVDIRR
notes: also called COMP11209; CFZ533
B1: in [1], the “% max blockade relative to no mAb, IL-6, B cells, donor 1” value was 84.2%; the “% max blockade relative to no mAb, IL-6, B cells, donor 2” value stood at 91.3%; the “% max blockade relative to no mAb, IL-6, B cells, donor 3” value was determined as 91.3%. Also, the binding result in assay [2] is “binds”. Moreover, in assay [3], the “% max blockade relative to no mAb, TNFa, B cells, donor 1” value was 53.9%; the “% max blockade relative to no mAb, TNFa, B cells, donor 2” value was found to be 71.4%; the “% max blockade relative to no mAb, TNFa, B cells, donor 3” value stood at 73.9%. In assay [4], the “% max blockade relative to no mAb, IL-10, assay #2, donor 1” value came out at 88.1% and the “% max blockade relative to no mAb, IL-10, assay #2, donor 2” value amounted to 90.5%. In assay [5], the “% max blockade relative to no mAb, TNFa, assay #2, donor 1” value is 62% and the “% max blockade relative to no mAb, TNFa, assay #2, donor 2” value amounted to 50.6%. Also, in assay [6], the “% max blockade relative to no mAb, IL-10, B cells, donor 1” value was found to be 84.1%; the “% max blockade relative to no mAb, IL-10, B cells, donor 2” value stood at 91.7%; the “% max blockade relative to no mAb, IL-10, B cells, donor 3” value was determined as 91.4%. Further, in assay [7], the “% max blockade relative to no mAb, IL-6, assay #2, donor 1” value was 88.6% and the “% max blockade relative to no mAb, IL-6, assay #2, donor 2” value turned out to be 88.3%.

B2: 21520P2 (antibody, human IgG4 S228P, kappa, V domains shown)
VH: EVQLVESGGGLVQPGGSLRLSCAASGFTFGSYGMAWVRQAPGKGLEWVSAISGSGDYTNYADSVKRRFTISRDNSKNTLYLQMSSLRAEDTAVYYCAKEKTGTTGYLYSGMDVWGQGTTVTVSS
VL: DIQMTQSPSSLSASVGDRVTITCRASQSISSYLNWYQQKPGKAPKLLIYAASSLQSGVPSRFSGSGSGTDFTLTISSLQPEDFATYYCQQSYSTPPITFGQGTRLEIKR
notes: Parental bivalent anti-CD40 mAb; also called H4sH21520P2
Consider B2, for which the “100 nM Ag Bound (RU)” value in assay [8] stood at 76.6 RU. In addition, the “100 nM Ag Bound (RU)” value in assay [9] was found to be 10.1 RU. Further, in assay [10], the “100 nM Ag Bound (RU)” value was -0.5 RU. Also, in assay [11], the “EC50, NFkB-luc Ramos, no ligand” value is greater than 10 nM; the “IC50 (three highest concentrations excluded, hook effect), NFkB-luc Ramos, 500 pM hCD40L” value amounted to 8.06e-11 M; the “Max % activation, NFkB-luc Ramos, no ligand” value worked out at 49%; the “Max % inhibition, NFkB-luc Ramos, 500 pM hCD40L” value stood at 63%. In assay [12], the “EC50, NFkB-luc Raji, no ligand” value was greater than 100 nM; the “IC50, NFkB-luc Raji, 900 pM hCD40L” value was found to be 7.7e-11 M; the “Max % activation, NFkB-luc Raji, no ligand” value is 25%; the “Max % inhibition, NFkB-luc Raji, 900 pM hCD40L” value was 81%. Moreover, in [13], the “% Blocking at highest mAb concentration” value was determined as 94%. For the same molecule, in assay [14], the “IC50, NFkB-luc THP-1, 10 nM hCD40L” value amounted to 0.437 nM; the “Max % activation, NFkB-luc THP-1, no ligand” value is 1%; the “Max % inhibition, NFkB-luc THP-1, 10 nM hCD40L” value is 97%. In addition, in assay [15], the “100 nM Ag Bound (RU)” value came out at 67.2 RU. In [16], the “100 nM Ag Bound (RU)” value was 0.2 RU.

B3: 21519P2 (antibody, human IgG4 S228P, kappa, V domains shown)
VH: QLQLQESGPGLVRPSETLSLTCSVSGASMNTNNYYWGWIRQPPGKGLEWIGSGYYNGNTYYNPSLKSRVTISVDTSKNQFSLKLNSVTAADTAVYYCARQTPPRIIGSPNIWGQGTMVTVSS
VL: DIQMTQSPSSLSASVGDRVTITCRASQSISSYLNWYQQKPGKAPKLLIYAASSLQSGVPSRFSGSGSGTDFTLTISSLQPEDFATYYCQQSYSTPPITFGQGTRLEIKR
notes: Parental bivalent anti-CD40 mAb; also called H4sH21519P2
In the case of B3, the “100 nM Ag Bound (RU)” value in assay [8] turned out to be 99 RU. The “100 nM Ag Bound (RU)” value in assay [9] stood at 10.3 RU. In addition, in [10], the “100 nM Ag Bound (RU)” value was determined as 0.4 RU. In assay [11], the “IC50, NFkB-luc Ramos, 500 pM hCD40L” value is 3.09e-11 M; the “Max % activation, NFkB-luc Ramos, no ligand” value was found to be 13%; the “Max % inhibition, NFkB-luc Ramos, 500 pM hCD40L” value came to 88%. Also, in [12], the “IC50, NFkB-luc Raji, 900 pM hCD40L” value worked out at 6.05e-11 M; the “Max % activation, NFkB-luc Raji, no ligand” value stood at 15%; the “Max % inhibition, NFkB-luc Raji, 900 pM hCD40L” value turned out to be 92%. Moreover, in assay [13], the “% Blocking at highest mAb concentration” value is 94%. Also, in assay [14], the “IC50, NFkB-luc THP-1, 10 nM hCD40L” value was found to be 0.276 nM; the “Max % activation, NFkB-luc THP-1, no ligand” value came to 5%; the “Max % inhibition, NFkB-luc THP-1, 10 nM hCD40L” value amounted to 99%. The “100 nM Ag Bound (RU)” value in assay [15] worked out at 105 RU. For the same molecule, in assay [16], the “100 nM Ag Bound (RU)” value worked out at 1.6 RU.

The values are drawn from patent US20250276092A1 (Regeneron, published 2025).
